According to article PMC7615752, “The histone chaperone SPT2 regulates chromatin structure and function in Metazoa” (Nature structural & molecular biology, 2023):

Biological target: T1, recombinant histone H3.1–H4 tetramer (NEB, M2509S) (UniProt P68431 1-136; P62805 1-103)
T1 construct: histone H3.1 of the recombinant H3.1–H4 tetramer; histone H4 of the recombinant H3.1–H4 tetramer; As I recall the NEB product is the human tetramer; also called H3–H4; histone H3–H4; source: bought: NEB, M2509S (recombinant); copies: 2 + 2
Assay: pull-down; 20 pmol recombinant H3.1–H4 tetramer covalently coupled to NHS-activated magnetic beads; 5 pmol full-length SPT2 in 20 mM Tris–HCl pH 8.0, 500 mM NaCl, 0.1% Triton X-100, 0.1 mM TCEP, 1.5 h at 4 °C; washes with 700 or 800 mM NaCl
Conditions: both partners purified

B1: HsSPT2, full-length (human SPT2), His6-tagged (natural protein)
chain: MDFREILMIASKGQGVNNVPKRYSLAVGPPKKDPKVKGVQSAAVQAFLKRKEEELRRKALEEKRRKEELVKKRIELKHDKKARAMAKRTKDNFHGYNGIPIEEKSKKRQATESHTSQGTDREYEMEEENEFLEYNHAESEQEYEEEQEPPKVESKPKVPLKSAPPPMNFTDLLRLAEKKQFEPVEIKVVKKSEERPMTAEELREREFLERKHRRKKLETDGKLPPTVSKKAPSQKESVGTKLSKGSGDRHPSSKGMPLPHAEKKSRPSMANEKHLALSSSKSMPGERIKAGSGNSSQPSLREGHDKPVFNGAGKPHSSTSSPSVPKTSASRTQKSAVEHKAKKSLSHPSHSRPGPMVTPHNKAKSPGVRQPGSSSSSAPGQPSTGVARPTVSSGPVPRRQNGSSSSGPERSISGSKKPTNDSNPSRRTVSGTCGPGQPASSSGGPGRPISGSVSSARPLGSSRGPGRPVSSPHELRRPVSGLGPPGRSVSGPGRSISGSIPAGRTVSNSVPGRPVSSLGPGQTVSSSGPTIKPKCTVVSETISSKNIISRSSNGQMNGMKPPLSGYRAAQGPQRLPFPTGYKRQREYEEEDDDDDEYDSEMEDFIEDEGEPQEEISKHIREIFGYDRKKYKDESDYALRYMESSWKEQQKEEAKSLRLGMQEDLEEMRREEEEMQRRRAKKLKRR
notes: human SPT2 (gene SPTY2D1), full length; source: E. coli Rosetta 2(DE3) pLysS BL21, purified (NiNTA, Flag M2 beads, Ulp1 cleavage); not shown: 2xFlag-SUMO, N-terminal, cleaved; His6, C-terminal, kept
B1: binds.
